# Laboratory results as given in paper PMC9482650, “Quantitative fragmentomics allow affinity mapping of interactomes” (Nature Communications, 2022).
# T1: DLG3_3, Q92796
# T1 sequence (Q92796 374-475, limits assumed, looked up): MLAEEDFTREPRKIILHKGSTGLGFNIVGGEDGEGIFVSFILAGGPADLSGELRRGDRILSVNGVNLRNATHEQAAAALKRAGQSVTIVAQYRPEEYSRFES
# T2: TX1BP3, O14907
# T2 sequence (O14907 10-122, limits assumed, looked up): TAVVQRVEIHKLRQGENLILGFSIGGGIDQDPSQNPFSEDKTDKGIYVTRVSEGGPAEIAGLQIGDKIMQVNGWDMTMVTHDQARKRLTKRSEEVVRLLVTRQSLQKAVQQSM
# T3: MPDZ_5, O75970
# T3 sequence (O75970 695-796, limits assumed, looked up): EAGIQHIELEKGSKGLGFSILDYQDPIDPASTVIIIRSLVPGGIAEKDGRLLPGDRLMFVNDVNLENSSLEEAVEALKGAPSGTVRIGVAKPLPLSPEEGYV
# T4: APBA1_1, Q02410
# T4 sequence (Q02410 651-752, limits assumed, looked up): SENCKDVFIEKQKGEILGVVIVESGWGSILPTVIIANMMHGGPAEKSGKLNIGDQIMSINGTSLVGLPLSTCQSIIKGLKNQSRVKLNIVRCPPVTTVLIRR
# T5: PDZD2_2, O15018
# T5 sequence (O15018 329-429, limits assumed, looked up): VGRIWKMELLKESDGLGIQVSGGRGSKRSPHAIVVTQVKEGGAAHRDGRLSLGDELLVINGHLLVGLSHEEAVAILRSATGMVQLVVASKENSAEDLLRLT
# T6: NHERF3_1, Q5T2W1
# T6 sequence (Q5T2W1 4-100, limits assumed, looked up): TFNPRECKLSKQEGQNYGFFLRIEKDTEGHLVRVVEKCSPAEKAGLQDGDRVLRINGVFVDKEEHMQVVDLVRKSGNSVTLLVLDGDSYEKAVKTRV
# T7: MPDZ_10, O75970
# T7 sequence (O75970 1624-1722, limits assumed, looked up): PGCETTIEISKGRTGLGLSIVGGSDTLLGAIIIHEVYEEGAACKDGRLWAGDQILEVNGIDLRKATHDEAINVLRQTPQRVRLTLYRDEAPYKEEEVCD
# T8: ARHGAP21, Q5T5U3
# T8 sequence (Q5T5U3 45-169, limits assumed, looked up): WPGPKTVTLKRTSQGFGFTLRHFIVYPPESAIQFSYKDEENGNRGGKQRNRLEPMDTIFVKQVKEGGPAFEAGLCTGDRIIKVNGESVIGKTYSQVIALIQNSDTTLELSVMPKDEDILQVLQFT
# T9: APBA1_2, Q02410
# T9 sequence (Q02410 742-832, limits assumed, looked up): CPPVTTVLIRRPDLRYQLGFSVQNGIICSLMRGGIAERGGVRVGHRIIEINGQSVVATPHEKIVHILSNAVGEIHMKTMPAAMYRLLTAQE
# T10: MPP7, Q5T2T1
# T10 sequence (Q5T2T1 134-230, limits assumed, looked up): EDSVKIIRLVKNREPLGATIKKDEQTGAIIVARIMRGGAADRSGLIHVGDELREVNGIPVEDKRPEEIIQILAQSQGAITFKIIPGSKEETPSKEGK
# How the values were obtained:
# Experiment in all cases: holdup assay
# Parameters in all cases: key: below the threshold = too weak to quantify, mostly under pKd 3.1 to 4
# Settings in all cases: plain residues with an end cap or a label only (N-terminal biotin on a linker: ado-ado)
# GRIP2_3, Q9C0E4 = biological target: GRIP2_3, Q9C0E4
# NOS1, P29475 = biological target: NOS1, P29475
# DLG4_1, P78352 = biological target: DLG4_1, P78352
# LDB3, O75112 = biological target: LDB3, O75112
# NHERF4_2, Q86UT5 = biological target: NHERF4_2, Q86UT5
# DLG3_3, Q92796 = biological target: T1, DLG3_3, Q92796
# SCRIB_2, Q14160 = biological target: SCRIB_2, Q14160
# TX1BP3, O14907 = biological target: T2, TX1BP3, O14907
# MPDZ_5, O75970 = biological target: T3, MPDZ_5, O75970
# NHERF4_4, Q86UT5 = biological target: NHERF4_4, Q86UT5
# Inadl_4, Q8NI35 = biological target: Inadl_4, Q8NI35
# APBA1_1, Q02410 = biological target: T4, APBA1_1, Q02410
# MAGI1_1, Q96QZ7 = biological target: MAGI1_1, Q96QZ7
# NHERF2_2, Q15599 = biological target: NHERF2_2, Q15599
# GRIP2_5, Q9C0E4 = biological target: GRIP2_5, Q9C0E4
# PDZD2_2, O15018 = biological target: T5, PDZD2_2, O15018
# NHERF3_1, Q5T2W1 = biological target: T6, NHERF3_1, Q5T2W1
# PICK1, Q9NRD5 = biological target: PICK1, Q9NRD5
# MAGI2_3, Q86UL8 = biological target: MAGI2_3, Q86UL8
# IL16_1, Q14005 = biological target: IL16_1, Q14005
# MPDZ_10, O75970 = biological target: T7, MPDZ_10, O75970
# MAST2, Q6P0Q8 = biological target: MAST2, Q6P0Q8
# ARHGAP21, Q5T5U3 = biological target: T8, ARHGAP21, Q5T5U3
# APBA1_2, Q02410 = biological target: T9, APBA1_2, Q02410
# PARD3_3, Q8TEW0 = biological target: PARD3_3, Q8TEW0
# GRID2IP_2, A4D2P6 = biological target: GRID2IP_2, A4D2P6
# MPP7, Q5T2T1 = biological target: T10, MPP7, Q5T2T1
# Sequence of GRIP2_3, Q9C0E4 (Q9C0E4 238-339): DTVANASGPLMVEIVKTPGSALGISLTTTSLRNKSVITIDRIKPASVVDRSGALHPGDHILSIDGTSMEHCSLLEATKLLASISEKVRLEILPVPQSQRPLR
# Sequence of GRIP2_5, Q9C0E4 (Q9C0E4 544-642): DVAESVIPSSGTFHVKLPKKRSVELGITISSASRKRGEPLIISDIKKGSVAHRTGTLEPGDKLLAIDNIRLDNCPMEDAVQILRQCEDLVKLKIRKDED
# Sequence of PICK1, Q9NRD5 (Q9NRD5 17-115): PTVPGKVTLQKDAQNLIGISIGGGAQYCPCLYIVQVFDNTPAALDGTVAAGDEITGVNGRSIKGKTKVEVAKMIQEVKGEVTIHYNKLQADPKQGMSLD
# Sequence of DLG4_1, P78352 (P78352 62-152): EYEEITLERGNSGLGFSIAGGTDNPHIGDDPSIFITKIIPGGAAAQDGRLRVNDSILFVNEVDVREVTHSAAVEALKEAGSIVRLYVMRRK
# Sequence of Inadl_4, Q8NI35 (Q8NI35 547-651): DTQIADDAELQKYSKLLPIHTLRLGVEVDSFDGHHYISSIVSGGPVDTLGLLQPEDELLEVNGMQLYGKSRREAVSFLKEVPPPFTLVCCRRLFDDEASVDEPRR
# Sequence of LDB3, O75112 (O75112 1-94): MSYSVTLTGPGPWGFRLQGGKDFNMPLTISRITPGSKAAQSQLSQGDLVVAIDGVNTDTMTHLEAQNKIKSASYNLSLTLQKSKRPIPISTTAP
# Sequence of PARD3_3, Q8TEW0 (Q8TEW0 582-685): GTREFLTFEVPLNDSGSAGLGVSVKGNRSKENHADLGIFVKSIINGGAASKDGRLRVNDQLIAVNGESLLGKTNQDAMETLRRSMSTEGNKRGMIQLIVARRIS
# Sequence of NHERF4_4, Q86UT5 (Q86UT5 464-550): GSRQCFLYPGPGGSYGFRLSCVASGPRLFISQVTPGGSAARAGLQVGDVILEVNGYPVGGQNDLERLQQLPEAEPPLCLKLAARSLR
# Sequence of NHERF2_2, Q15599 (Q15599 142-238): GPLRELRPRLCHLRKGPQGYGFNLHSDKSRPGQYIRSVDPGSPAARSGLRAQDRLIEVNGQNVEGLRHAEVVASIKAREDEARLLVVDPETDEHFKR
# Sequence of IL16_1, Q14005 (Q14005 210-306): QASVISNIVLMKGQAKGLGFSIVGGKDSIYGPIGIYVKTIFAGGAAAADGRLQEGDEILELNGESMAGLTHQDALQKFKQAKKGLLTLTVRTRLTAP
# Sequence of MAGI2_3, Q86UL8 (Q86UL8 600-682): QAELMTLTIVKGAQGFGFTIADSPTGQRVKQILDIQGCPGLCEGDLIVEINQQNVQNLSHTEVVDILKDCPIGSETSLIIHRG
# Sequence of MAGI1_1, Q96QZ7 (Q96QZ7 1-106): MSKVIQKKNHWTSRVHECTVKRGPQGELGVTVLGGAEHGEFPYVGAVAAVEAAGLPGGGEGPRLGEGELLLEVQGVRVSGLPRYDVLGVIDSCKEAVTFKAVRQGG
# Sequence of MAST2, Q6P0Q8 (Q6P0Q8 1099-1202): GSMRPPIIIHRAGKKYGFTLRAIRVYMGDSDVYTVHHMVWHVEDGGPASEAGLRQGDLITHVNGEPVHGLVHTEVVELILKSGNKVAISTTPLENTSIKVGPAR
# Sequence of NOS1, P29475 (P29475 9-101): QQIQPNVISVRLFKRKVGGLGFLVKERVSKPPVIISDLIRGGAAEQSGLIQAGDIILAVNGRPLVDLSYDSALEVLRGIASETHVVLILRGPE
# Sequence of NHERF4_2, Q86UT5 (Q86UT5 220-308): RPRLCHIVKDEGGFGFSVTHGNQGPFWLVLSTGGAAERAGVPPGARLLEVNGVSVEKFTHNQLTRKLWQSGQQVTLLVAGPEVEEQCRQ
# Sequence of SCRIB_2, Q14160 (Q14160 857-960): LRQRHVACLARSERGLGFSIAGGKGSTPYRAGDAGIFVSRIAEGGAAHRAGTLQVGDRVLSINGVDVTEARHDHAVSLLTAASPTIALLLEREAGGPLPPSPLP
# Sequence of GRID2IP_2, A4D2P6 (A4D2P6 272-370): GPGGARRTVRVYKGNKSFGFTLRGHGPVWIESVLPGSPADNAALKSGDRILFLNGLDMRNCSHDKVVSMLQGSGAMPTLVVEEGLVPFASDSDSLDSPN
Binder,"pKd (GRIP2_3, Q9C0E4)","pKd (NOS1, P29475)","pKd (DLG4_1, P78352)","pKd (LDB3, O75112)","pKd (NHERF4_2, Q86UT5)","pKd (DLG3_3, Q92796)","pKd (SCRIB_2, Q14160)","pKd (TX1BP3, O14907)","pKd (MPDZ_5, O75970)","pKd (NHERF4_4, Q86UT5)","pKd (Inadl_4, Q8NI35)","pKd (APBA1_1, Q02410)","pKd (MAGI1_1, Q96QZ7)","pKd (NHERF2_2, Q15599)","pKd (GRIP2_5, Q9C0E4)","pKd (PDZD2_2, O15018)","pKd (NHERF3_1, Q5T2W1)","pKd (PICK1, Q9NRD5)","pKd (MAGI2_3, Q86UL8)","pKd (IL16_1, Q14005)",further results
"EIPAQSPTCV [FZD10, Q9ULW2]",3.61,4.17,4.01,below the threshold,below the threshold,3.81,below the threshold,below the threshold,below the threshold,below the threshold,3.64,below the threshold,3.79,3.81,3.7,4.49,below the threshold,3.51,below the threshold,3.79,"pKd (MPDZ_10, O75970): 3.89; pKd (MAST2, Q6P0Q8): 4.01; pKd (ARHGAP21, Q5T5U3): 4.12; pKd (APBA1_2, Q02410): 4.77; pKd (PARD3_3, Q8TEW0): 3.65; pKd (GRID2IP_2, A4D2P6): 3.67; pKd (MPP7, Q5T2T1): below the threshold"
"DPAESMESLV [PTPRG, P23470]",below the threshold,3.74,4.59,below the threshold,below the threshold,below the threshold,3.68,4.03,below the threshold,3.75,below the threshold,below the threshold,below the threshold,below the threshold,below the threshold,5.16,4.7,4.13,4.54,4.53,"pKd (MPDZ_10, O75970): below the threshold; pKd (MAST2, Q6P0Q8): 4.69; pKd (ARHGAP21, Q5T5U3): below the threshold; pKd (APBA1_2, Q02410): below the threshold; pKd (PARD3_3, Q8TEW0): 3.93; pKd (GRID2IP_2, A4D2P6): below the threshold; pKd (MPP7, Q5T2T1): below the threshold"
